Data: patent US20070065895

Key:
GST-Asp1459-Arg1668-H = molecular target: T1, GST-Asp1459-Arg1668-H
T1 chain: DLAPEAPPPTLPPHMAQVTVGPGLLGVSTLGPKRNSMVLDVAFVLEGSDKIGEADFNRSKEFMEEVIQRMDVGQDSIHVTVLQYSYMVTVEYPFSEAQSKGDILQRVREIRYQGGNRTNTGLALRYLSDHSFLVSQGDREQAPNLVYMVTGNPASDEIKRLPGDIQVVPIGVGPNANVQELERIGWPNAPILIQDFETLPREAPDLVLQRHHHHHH

GST-Asp1587-Arg1668-H = molecular target: T2, GST-Asp1587-Arg1668-H
T2 chain: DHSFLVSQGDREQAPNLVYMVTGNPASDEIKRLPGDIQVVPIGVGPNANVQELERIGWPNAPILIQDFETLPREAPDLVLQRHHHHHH

GST-Asp1596-Arg1659-H = molecular target: T3, GST-Asp1596-Arg1659-H
T3 chain: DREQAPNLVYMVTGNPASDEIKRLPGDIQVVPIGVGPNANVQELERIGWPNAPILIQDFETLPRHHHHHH

GST-Asp1596-Arg1668-H = molecular target: T4, GST-Asp1596-Arg1668-H
T4 chain: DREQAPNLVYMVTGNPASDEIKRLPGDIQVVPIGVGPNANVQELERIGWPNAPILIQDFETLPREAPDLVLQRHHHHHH

GST-Glu1554-Arg1668-H = molecular target: T5, GST-Glu1554-Arg1668-H
T5 chain: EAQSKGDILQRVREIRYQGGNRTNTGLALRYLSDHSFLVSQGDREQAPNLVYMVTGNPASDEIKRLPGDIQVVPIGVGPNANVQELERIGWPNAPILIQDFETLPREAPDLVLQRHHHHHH

B1: ADAMTS-13 (von Willebrand factor cleaving enzyme), as present in normal plasma (protein)
chain: AAGGILHLELLVAVGPDVFQAHQEDTERYVLTNLNIGAELLRDPSLGAQFRVHLVKMVILTEPEGAPNITANLTSSLLSVCGWSQTINPEDDTDPGHADLVLYITRFDLELPDGNRQVRGVTQLGGACSPTWSCLITEDTGFDLGVTIAHEIGHSFGLEHDGAPGSGCGPSGHVMASDGAAPRAGLAWSPCSRRQLLSLLSAGRARCVWDPPRPQPGSAGHPPDAQPGLYYSANEQCRVAFGPKAVACTFAREHLDMCQALSCHTDPLDQSSCSRLLVPLLDGTECGVEKWCSKGRCRSLVELTPIAAVHGRWSSWGPRSPCSRSCGGGVVTRRRQCNNPRPAFGGRACVGADLQAEMCNTQACEKTQLEFMSQQCARTDGQPLRSSPGGASFYHWGAAVPHSQGDALCRHMCRAIGESFIMKRGDSFLDGTRCMPSGPREDGTLSLCVSGSCRTFGCDGRMDSQQVWDRCQVCGGDNSTCSPRKGSFTAGRAREYVTFLTVTPNLTSVYIANHRPLFTHLAVRIGGRYVVAGKMSISPNTTYPSLLEDGRVEYRVALTEDRLPRLEEIRIWGPLQEDADIQVYRRYGEEYGNLTRPDITFTYFQPKPRQAWVWAAVRGPCSVSCGAGLRWVNYSCLDQARKELVETVQCQGSQQPPAWPEACVLEPCPPYWAVGDFGPCSASCGGGLRERPVRCVEAQGSLLKTLPPARCRAGAQQPAVALETCNPQPCPARWEVSEPSSCTSAGGAGLALENETCVPGADGLEAPVTEGPGSVDEKLPAPEPCVGMSCPPGWGHLDATSAGEKAPSPWGSIRTGAQAAHVWTPAAGSCSVSCGRGLMELRFLCMDSALRVPVQEELCGLASKPGSRREVCQAVPCPARWQYKLAACSVSCGRGVVRRILYCARAHGEDDGEEILLDTQCQGLPRPEPQEACSLEPCPPRWKVMSLGPCSASCGLGTARRSVACVQLDQGQDVEVDEAACAALVRPEASVPCLIADCTYRWHVGTWMECSVSCGDGIQRRRDTCLGPQAQAPVPADFCQHLPKPVTVRGCWAGPCVGQGTPSLVPHEEAAAPGRTTATPAGASLEWSQARGLLFSPAPQPRRLLPGPQENSVQSSACGRQHLEPTGTIDMRGPGQADCAVAIGRPLGEVVTLRVLESSLNCSAGDMLLLWGRLTWRKMCRKLLDMTFSSKTNTLVVRQRCGRPGGGVLLRYGSQLAPETFYRECDMQLFGPWGEIVSPSLSPATSNAGGCRLFINVAPHARIAIHALATNMGAGTEGANASYILIRDTHSLRTTAFHGQQVLYWESESSQAEMEFSEGFLKAQASLRGQYWTLQSWVPEMQDPQSWKGKEGT
cleavage fragment after 2 h reaction with normal plasma at 37 C (SDS-PAGE, western blot with anti-GST antibody) (GST-Asp1459-Arg1668-H): did not give the fragment or was difficult to give the fragment
cleavage fragment after 2 h reaction with normal plasma at 37 C (SDS-PAGE, western blot with anti-GST antibody) (GST-Asp1587-Arg1668-H): the expected fragment (indicated by the arrowheads in the figure) was clearly yielded
cleavage fragment after 2 h reaction with normal plasma at 37 C (SDS-PAGE, western blot with anti-GST antibody) (GST-Asp1596-Arg1659-H): did not give the fragment or was difficult to give the fragment
cleavage fragment after 2 h reaction with normal plasma at 37 C (SDS-PAGE, western blot with anti-GST antibody) (GST-Asp1596-Arg1668-H): the expected fragment (indicated by the arrowheads in the figure) was clearly yielded
cleavage fragment after reaction with plasma of TTP patients and family members against normal plasma (SDS-PAGE, western blot with anti-GST antibody) (GST-Asp1596-Arg1668-H): When each of plasma samples from two patients was reacted with GST-Asp^1596Arg^1668H, there was not detected the fragment which is yielded by the reaction with normal plasma; with plasma of about one-half ADAMTS-13 activity the fragment was yielded at smaller amounts than with the normal plasma
cleavage fragment after 2 h reaction with normal plasma at 37 C (SDS-PAGE, western blot with anti-GST antibody) (GST-Glu1554-Arg1668-H): a very faint band was produced at the expected position
